These are literature values, as cited in article PMC7355470.

Data set [1] concerns the target PSGL-1 (Homo sapiens) (UniProt Q14242).
For a further data set, the target named is ESL-1 (Mus musculus) (UniProt Q61543). Nature of the data set: SPR. (SPR reads the build-up and loss of mass on a sensor chip optically.)
Data set [2] deals with PSGL-1 (Homo sapiens) (UniProt Q14242). This is another data set of the same source.
Another data set concerns the target GlyCAM-1 (UniProt Q02596).
Data set [3] addresses PSGL-1 glycosulfopeptide N-terminal binding region peptide (Homo sapiens) (UniProt Q14242).
The target of data set [4] is PSGL-1 glycopeptide (non-sulfated) N-terminal binding region peptide (Homo sapiens) (UniProt Q14242).
Data set [5] addresses PSGL-1 glycosulfopeptide N-terminal binding region peptide (Homo sapiens) (UniProt Q14242). The source holds these as a separate data set.
For data set [6] the target is unchanged. The source holds these as a separate data set.
Data set [7] has as its target L-selectin (Homo sapiens) (UniProt P14151).
In data set [8] the target is P-selectin (Homo sapiens) (UniProt P16109).
For data set [9], the target named is E-selectin (Homo sapiens) (UniProt P16581).
Data set [10] concerns the target P-selectin (Homo sapiens) (UniProt P16109). This is another data set of the same source.
Data set [11] shares this target. This is another data set of the same source.
Data set [12] has the same target. The source holds these as a separate data set.
Data set [13] has the same target. This is another data set of the same source.

Read-outs that look alike come from different tables or passages of the source.

Sequence of PSGL-1 (Q14242 42-320): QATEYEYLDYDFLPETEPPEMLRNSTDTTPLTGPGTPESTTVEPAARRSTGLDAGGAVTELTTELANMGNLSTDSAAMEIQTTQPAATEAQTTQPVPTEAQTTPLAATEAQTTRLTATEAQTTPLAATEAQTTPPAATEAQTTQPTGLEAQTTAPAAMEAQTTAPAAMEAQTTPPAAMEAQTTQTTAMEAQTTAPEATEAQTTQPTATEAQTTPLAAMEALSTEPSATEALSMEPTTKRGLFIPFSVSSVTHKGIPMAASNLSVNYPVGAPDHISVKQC
Sequence of UniProt Q61543 (Q61543 28-1141): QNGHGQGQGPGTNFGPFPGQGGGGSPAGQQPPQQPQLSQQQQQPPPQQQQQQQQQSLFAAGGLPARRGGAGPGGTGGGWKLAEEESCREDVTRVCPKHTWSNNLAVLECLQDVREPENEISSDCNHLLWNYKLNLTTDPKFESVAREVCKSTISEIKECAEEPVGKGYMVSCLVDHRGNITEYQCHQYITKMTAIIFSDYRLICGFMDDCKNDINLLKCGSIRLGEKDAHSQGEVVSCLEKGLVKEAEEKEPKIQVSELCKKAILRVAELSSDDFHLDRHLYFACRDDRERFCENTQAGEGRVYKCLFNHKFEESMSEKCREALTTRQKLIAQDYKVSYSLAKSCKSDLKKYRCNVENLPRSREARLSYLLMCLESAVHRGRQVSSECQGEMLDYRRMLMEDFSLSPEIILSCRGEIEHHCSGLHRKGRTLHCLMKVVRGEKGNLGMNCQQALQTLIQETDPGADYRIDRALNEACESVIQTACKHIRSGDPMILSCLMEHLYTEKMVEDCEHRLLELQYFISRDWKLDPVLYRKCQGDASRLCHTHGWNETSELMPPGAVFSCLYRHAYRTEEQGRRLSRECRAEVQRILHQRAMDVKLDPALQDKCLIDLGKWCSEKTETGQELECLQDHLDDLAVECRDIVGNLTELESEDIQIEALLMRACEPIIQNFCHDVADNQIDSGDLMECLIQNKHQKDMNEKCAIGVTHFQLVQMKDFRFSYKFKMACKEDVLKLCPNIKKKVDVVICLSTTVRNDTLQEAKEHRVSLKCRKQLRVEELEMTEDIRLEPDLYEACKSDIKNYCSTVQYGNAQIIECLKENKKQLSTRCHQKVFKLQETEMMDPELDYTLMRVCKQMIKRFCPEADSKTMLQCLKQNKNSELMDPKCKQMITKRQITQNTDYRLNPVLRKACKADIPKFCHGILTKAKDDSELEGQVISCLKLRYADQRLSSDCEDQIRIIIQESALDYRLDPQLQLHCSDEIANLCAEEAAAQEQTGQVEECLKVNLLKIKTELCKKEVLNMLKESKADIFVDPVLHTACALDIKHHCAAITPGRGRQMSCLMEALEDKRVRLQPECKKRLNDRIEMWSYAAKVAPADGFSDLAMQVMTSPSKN
Sequence of PSGL-1 glycopeptide (non-sulfated) (Q14242 42-320): as the sequence (Q14242 42-320) above
Sequence of UniProt Q02596 (Q02596 20-151): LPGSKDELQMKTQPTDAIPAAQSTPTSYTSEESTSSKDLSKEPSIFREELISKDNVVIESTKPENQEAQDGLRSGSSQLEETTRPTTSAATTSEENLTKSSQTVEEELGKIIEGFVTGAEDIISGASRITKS

For orientation: Kd means the concentration at which binding is half-saturated. For E-selectin (from UniProt P16581), the equilibrium dissociation constant (Kd) is 15 µM with PSGL-1 (Homo sapiens) [1] and 62 µM with ESL-1 (Mus musculus).
For E-selectin (from UniProt Q00690), the Kd with ESL-1 (Mus musculus) was 62 µM.
In the case of L-selectin (from UniProt P14151), the dissociation constant (Kd) with PSGL-1 (Homo sapiens) [2] is 5 µM.
Regarding L-selectin (from UniProt P18337), in the data set with GlyCAM-1, the Kd is 108 µM.
As for P-selectin (from UniProt P16109), the Kd in data set [3] is 650 nM; in data set [4] it was 25 µM; in [5], 6 µM; in [6], 10 µM.
On to PSGL-1 (from UniProt Q14242), for which the figures for the Kd in [7], in data set [8] and in data set [9] were 5 µM, 320 nM and 15 µM, respectively.
“PSGL-1 glucosulfopeptide (from UniProt Q14242)”: the values for the equilibrium dissociation constant (Kd) in data set [10], in data set [11] and in [12] were 10 µM, 650 nM and 6 µM, respectively.
Take “PSGL-1 glycopeptide (non-sulfated) (from UniProt Q14242)”: in [13], the Kd is 25 µM.
